Starred links: 1 amine or outer side, 2 acyl side, 3 side chain; linkers in the order of their positions; H or OH if unused. Positions of bridges follow the written chain, without caps; N, C: chain ends. Non-standard residues stand in square brackets, D forms with d. Chains are numbered I, II in the order given. No end group written: not given here. *: point of attachment. TATA = O=C(CC[*:1])N1CN(C(=O)CC[*:2])CN(C(=O)CC[*:3])C1; Dap(PYA) = diaminopropionic acid bearing 4-pentynoyl; 1Nal = N[C@@H](Cc1cccc2ccccc12)C(=O)O; Hyp = O=C(O)[C@@H]1C[C@@H](O)CN1; hArg = N=C(N)NCCCC[C@H](N)C(=O)O; tBuAla = CC(C)(C)C[C@H](N)C(=O)O; Nle = CCCC[C@H](N)C(=O)O; Pent4ynoyl = C#CCCC(=O)*; Dap = NC[C@H](N)C(=O)O; βAla = NCCC(=O)O; Sar = CNCC(=O)O
Key:
[1] = target: CD137 expressed on cells (CHO cells expressing CD137); Jurkat cells of the Promega CD137 luciferase reporter … (UniProt Q07011 24-255, limits assumed); experiment: cell-based or functional assay
CD137 expressed on cells (CHO cells expressing CD137); Jurkat cells of the Promega CD137 luciferase reporter …, sequence (Q07011 24-255 limits assumed): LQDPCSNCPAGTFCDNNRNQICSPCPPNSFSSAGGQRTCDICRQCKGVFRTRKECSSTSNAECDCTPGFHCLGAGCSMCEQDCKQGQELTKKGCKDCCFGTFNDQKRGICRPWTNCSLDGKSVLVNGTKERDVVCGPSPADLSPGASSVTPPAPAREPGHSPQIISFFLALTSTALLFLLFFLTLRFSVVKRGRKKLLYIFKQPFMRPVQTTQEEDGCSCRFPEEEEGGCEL

[2] = target: CD137 expressed on cells (CHO cells expressing CD137; Jurkat cells of the Promega CD137 luciferase reporter assay) (UniProt Q07011); experiment: cell-based or functional assay
CD137 expressed on cells (CHO cells expressing CD137; Jurkat cells of the Promega CD137 luciferase reporter assay), sequence (Q07011 24-255 limits assumed): as above

[3] = target: T1, Recombinant human CD137 (R&D systems) (human, UniProt Q07011 24-186, biotinylated with EZ-Link Sulfo-NHS-LC-LC-Biotin); experiment: SPR (Biacore), biotinylated human CD137 on streptavidin chip
T1 construct: Bought protein; also called human CD137 protein; TNFRSF9
Method: The protein was desalted to remove uncoupled biotin using spin columns into PBS.
For analysis of peptide binding, a Biacore T200 or a Biacore 3000 instrument was used with a XanTec CMD500D chip. Streptavidin was immobilized on the chip using standard amine-coupling chemistry at 25° C. with HBS-N (10 mM HEPES, 0.15 M NaCl, pH 7.4) as the running buffer. Briefly, the carboxymethyl dextran surface was activated with a 7 min injection of a 1:1 ratio of 0.4 M 1-ethyl-3-(3-dimethylaminopropyl) carbodiimide hydrochloride (EDC)/0.1 M N-hydroxy succinimide (NHS) at a flow rate of 10 μl/min. For capture of streptavidin, the protein was diluted to 0.2 mg/ml in 10 mM sodium acetate (pH 4.5) and captured by injecting 120 μl of onto the activated chip surface. Residual activated groups were blocked with a 7 min injection of 1 M ethanolamine (pH 8.5) and biotinylated CD137 captured to a level of 270-1500 RU. Buffer was changed to PBS/0.05% Tween 20 and a dilution series of the peptides was prepared in this buffer with a final DMSO concentration of 0.5%. The top peptide concentration was 500 nM with 6 further 2-fold or 3-fold dilutions. The SPR analysis was run at 25° C. at a flow rate of 90 μl/min with 60 seconds association and 900 seconds dissociation. After each cycle a regeneration step (10 μl of 10 mM glycine pH 2) was employed. Data were corrected for DMSO excluded volume effects as needed. All data were double-referenced for blank injections and reference surface using standard processing procedures and data processing and kinetic fitting were performed using Scrubber software, version 2.0c (BioLogic Software). Data were fitted using simple 1:1 binding model allowing for mass transport effects where appropriate.

Row | Binder | EC50 (nM), CD137 reporter assay, co-culture with RKO (PD-L1) [1] [nM] | EC50 (nM), CD137 reporter assay, co-culture with PC3 (EphA2) [2] [nM] | Fold Induction over Background, CD137 reporter assay, co-culture with PC3 (EphA2) [2] [fold] | also measured
1 | heterotandem bicyclic peptide complex BCY8939 (BCY7732: N-terminal acetyl; Nle12; C-terminal Dap (diaminopropionic acid) bearing the linker; Ci, Cii, Ciii on TATA scaffold; BCY8938: N-terminal [PYA]-[B-Ala]-[Sar10]- (linker on PYA); HArg1; Ci, Cii, Ciii on TATA scaffold) peptide 1: CXDWCHWTFSHGHPC peptide 2: ACIEEGQYCFADPYXC | – | – | – | Fold Induction over Background, CD137 reporter assay, co-culture with MC38 (mouse PD-L1) [1]: < 2 fold
2 | heterotandem bicyclic peptide complex BCY11017 (not fully specified; BCY8919: N-terminal acetyl; tBuAla1, Lys3 bearing the linker, D-Ala4, Nle12; Ci, Cii, Ciii on TATA scaffold; BCY10861: N-terminal acetyl; K(PYA)9 bearing the linker; Ci, Cii, Ciii on TATA scaffold) peptide 1: SDKCSAGWLTMCQXLHLCPSH peptide 2: CXPKAPYCFADPYXCA | 66 | – | – | –
3 | heterotandem bicyclic peptide complex BCY11376 (not fully specified; BCY8919: N-terminal acetyl; tBuAla1, Lys3 bearing the linker, D-Ala4, Nle12; Ci, Cii, Ciii on TATA scaffold; BCY10861: N-terminal acetyl; K(PYA)9 bearing the linker; Ci, Cii, Ciii on TATA scaffold) peptide 1: SDKCSAGWLTMCQXLHLCPSH peptide 2: CXPKAPYCFADPYXCA | 127 | – | – | –
4 | heterotandem bicyclic peptide complex BCY11379 (not fully specified; BCY8919: N-terminal acetyl; tBuAla1, Lys3 bearing the linker, D-Ala4, Nle12; Ci, Cii, Ciii on TATA scaffold; BCY10861: N-terminal acetyl; K(PYA)9 bearing the linker; Ci, Cii, Ciii on TATA scaffold) peptide 1: SDKCSAGWLTMCQXLHLCPSH peptide 2: CXPKAPYCFADPYXCA | 68 | – | – | –
5 | heterotandem bicyclic peptide complex BCY11377 (not fully specified; BCY8920: N-terminal acetyl; tBuAla1, D-Lys4 bearing the linker, Nle12; Ci, Cii, Ciii on TATA scaffold; BCY10861: N-terminal acetyl; K(PYA)9 bearing the linker; Ci, Cii, Ciii on TATA scaffold) peptide 1: SDKCSAGWLTMCQXLHLCPSH peptide 2: CXPEKPYCFADPYXCA | 40 | – | – | –
6 | heterotandem bicyclic peptide complex BCY11380 (not fully specified; BCY8920: N-terminal acetyl; tBuAla1, D-Lys4 bearing the linker, Nle12; Ci, Cii, Ciii on TATA scaffold; BCY10861: N-terminal acetyl; K(PYA)9 bearing the linker; Ci, Cii, Ciii on TATA scaffold) peptide 1: SDKCSAGWLTMCQXLHLCPSH peptide 2: CXPEKPYCFADPYXCA | 34 | – | – | –
7 | heterotandem bicyclic peptide complex BCY10569 (linker I:11-I:15-I:25, II:1-II:8-II:15 via TATA; not fully specified (C-terminus, bridges); numbers in words are those of the source; also: chains joined by PEG12 linker, triazole from PYA, linker on chain 2 D-Lys side chain) peptide 1: {Pent4ynoyl-βAla}-[Sar][Sar][Sar][Sar][Sar][Sar][Sar][Sar][Sar][Sar]CP[1Nal][dD]CM[hArg]DWSTP[Hyp]WC peptide 2: Ac-C[tBuAla]PE[dK]PYCFADPY[Nle]CA | – | – | – | EC50 (nM), CD137 reporter assay, co-culture with H1376 (Nectin4) [1]: 1.2 nM; Fold Induction over Background, CD137 reporter assay, co-culture with H1376 (Nectin4) [1]: 52 fold
8 | heterotandem bicyclic peptide complex BCY10567 (linker I:11-I:15-I:25, II:1-II:8-II:15 via TATA; not fully specified (C-terminus, bridges); numbers in words are those of the source; also: chains joined by PEG12 linker, triazole from PYA, linker on chain 2 Lys4 side chain) peptide 1: {Pent4ynoyl-βAla}-[Sar][Sar][Sar][Sar][Sar][Sar][Sar][Sar][Sar][Sar]CP[1Nal][dD]CM[hArg]DWSTP[Hyp]WC peptide 2: Ac-C[tBuAla]PK[dA]PYCFADPY[Nle]CA | – | – | – | EC50 (nM), CD137 reporter assay, co-culture with H1376 (Nectin4) [1]: 1.7 nM; Fold Induction over Background, CD137 reporter assay, co-culture with H1376 (Nectin4) [1]: 45 fold
9 | heterotandem bicyclic peptide complex BCY11018 (not fully specified; BCY8920: N-terminal acetyl; tBuAla1, D-Lys4 bearing the linker, Nle12; Ci, Cii, Ciii on TATA scaffold; BCY10861: N-terminal acetyl; K(PYA)9 bearing the linker; Ci, Cii, Ciii on TATA scaffold) peptide 1: SDKCSAGWLTMCQXLHLCPSH peptide 2: CXPEKPYCFADPYXCA | 27 | – | – | –
10 | heterotandem bicyclic peptide complex BCY10577 (linker I:14-I:21-I:28, II:1-II:8-II:15 via TATA; not fully specified (C-terminus); numbers in words are those of the source; also: chains joined by CH2 linker, triazole from PYA, linker on Dap side chain) peptide 1: {Pent4ynoyl-βAla}-[Sar][Sar][Sar][Sar][Sar][Sar][Sar][Sar][Sar][Sar]A[hArg]DC[Hyp]LVNPLCLHP[dD]W[hArg]C peptide 2: Ac-C[tBuAla]PE[dA]PYCFADPY[Nle]C[Dap] | – | 0.28 | 37 | –
11 | heterotandem bicyclic peptide complex BCY10568 (linker I:14-I:21-I:28, II:1-II:8-II:15 via TATA; not fully specified (C-terminus); numbers in words are those of the source; also: chains joined by PEG12 linker, triazole from PYA, linker on chain 2 Lys4 side chain) peptide 1: {Pent4ynoyl-βAla}-[Sar][Sar][Sar][Sar][Sar][Sar][Sar][Sar][Sar][Sar]A[hArg]DC[Hyp]LVNPLCLHP[dD]W[hArg]C peptide 2: Ac-C[tBuAla]PK[dA]PYCFADPY[Nle]CA | – | 0.25 | 32 | –
12 | heterotandem bicyclic peptide complex BCY10575 (linker I:4-I:11-I:18, II:1-II:8-II:15 via TATA; not fully specified (C-terminus); also: chains joined by PEG5 linker on chain 1 N-terminus, triazole to D-Lys(PYA)) peptide 1: A[hArg]DC[Hyp]LVNPLCLHP[dD]W[hArg]C peptide 2: Ac-C[tBuAla]PE[dK](Pent4ynoyl)PYCFADPY[Nle]CA | – | 0.62 | 38 | –
13 | heterotandem bicyclic peptide complex BCY10578 (linker I:11-I:15-I:25, II:1-II:8-II:15 via TATA; not fully specified (C-terminus); numbers in words are those of the source; also: linker to a chain's N/C-terminus via CH2) peptide 1: {Pent4ynoyl-βAla}-[Sar][Sar][Sar][Sar][Sar][Sar][Sar][Sar][Sar][Sar]CP[1Nal][dD]CM[hArg]DWSTP[Hyp]WC peptide 2: Ac-C[tBuAla]PE[dA]PYCFADPY[Nle]C[Dap] | – | – | – | EC50 (nM), CD137 reporter assay, co-culture with H1376 (Nectin4) [1]: 0.42 nM
14 | heterotandem bicyclic peptide complex BCY10573 (linker I:1-I:5-I:15, II:1-II:8-II:15 via TATA; not fully specified (C-terminus); also: linker to a chain's N/C-terminus via PEG5) peptide 1: CP[1Nal][dD]CM[hArg]DWSTP[Hyp]WC peptide 2: Ac-C[tBuAla]PE[dA]PYCFADPY[Nle]C-{Dap(PYA)} | – | – | – | Kd [3]: 3.39 nM
15 | heterotandem bicyclic peptide complex BCY10574 (linker I:4-I:11-I:18, II:1-II:8-II:15 via TATA; not fully specified (C-terminus); also: chains joined by PEG5 linker on chain 1 N-terminus, triazole to K(PYA)) peptide 1: A[hArg]DC[Hyp]LVNPLCLHP[dD]W[hArg]C peptide 2: Ac-C[tBuAla]PK(Pent4ynoyl)[dA]PYCFADPY[Nle]CA | – | 1 | 32 | –
16 | heterotandem bicyclic peptide complex BCY10576 (linker I:4-I:11-I:18, II:1-II:8-II:15 via TATA; not fully specified (C-terminus); also: chains joined by PEG5 linker on chain 1 N-terminus, triazole to Dap(PYA)) peptide 1: A[hArg]DC[Hyp]LVNPLCLHP[dD]W[hArg]C peptide 2: Ac-C[tBuAla]PE[dA]PYCFADPY[Nle]C-{Dap(PYA)} | – | 0.51 | 38 | –
17 | heterotandem bicyclic peptide complex BCY10580 (linker I:14-I:22-I:28, II:1-II:8-II:15 via TATA; not fully specified (C-terminus); numbers in words are those of the source; also: linker to a chain's N/C-terminus via PEG12) peptide 1: {Pent4ynoyl-βAla}-[Sar][Sar][Sar][Sar][Sar][Sar][Sar][Sar][Sar][Sar]SDKCSAGWLTMCQKLHLC peptide 2: Ac-C[tBuAla]PE[dA]PYCFADPY[Nle]C[Dap] | 28 | – | – | Fold Induction over Background, CD137 reporter assay, co-culture with RKO (PD-L1) [1]: 3 fold
18 | heterotandem bicyclic peptide complex BCY10582 (not fully specified; BCY9172: N-terminal acetyl; tBuAla1, D-Ala4, Nle12; C-terminal Dap (diaminopropionic acid) bearing the linker; Ci, Cii, Ciii on TATA scaffold; BCY10045: free N-terminus (NH2-); K(PYA)9 bearing the linker; Ci, Cii, Ciii on TATA scaffold) peptide 1: SDKCSAGWLTMCQXLHLC peptide 2: CXPEAPYCFADPYXC | 28 | – | – | Fold Induction over Background, CD137 reporter assay, co-culture with RKO (PD-L1) [1]: 4 fold
19 | heterotandem bicyclic peptide complex BCY10570 (linker I:14-I:21-I:28, II:1-II:8-II:15 via TATA; not fully specified (C-terminus); numbers in words are those of the source; also: chains joined by PEG12 linker, triazole from PYA, linker on chain 2 D-Lys side chain) peptide 1: {Pent4ynoyl-βAla}-[Sar][Sar][Sar][Sar][Sar][Sar][Sar][Sar][Sar][Sar]A[hArg]DC[Hyp]LVNPLCLHP[dD]W[hArg]C peptide 2: Ac-C[tBuAla]PE[dK]PYCFADPY[Nle]CA | – | 0.41 | 38 | –

From patent US20190307836A1 (Bicycle, published 2019)
